From patent US20040081659A1, “Conjugates useful in the treatment of prostate cancer” (Merck & Co., Inc., priority 1997, published 2004)
Several values for one entry are separate records, joined by “and”; a condition that tells them apart may be missing. Identical values can stand only once. Like-named read-outs stand apart in the source and are kept apart here.

Key:
[1] = molecular target: T1, enzymatically active free PSA (York PSA) (Homo sapiens, UniProt P07288); test: Recognition/cleavage of oligopeptide-vinca drug conjugates by free PSA (HPLC); assay type: biochemical; conditions: for Time to 50% Substrate Cleavage by York PSA: conjugate to PSA molar ratio 100 to 1, pH7.4 buffer
T1 construct: 50% cleavage of the noted. oligopeptide-cytotoxic agent conjugates with enzymatically active free PSA were then calculated; purchased York
T1 sequence (P07288 25-261): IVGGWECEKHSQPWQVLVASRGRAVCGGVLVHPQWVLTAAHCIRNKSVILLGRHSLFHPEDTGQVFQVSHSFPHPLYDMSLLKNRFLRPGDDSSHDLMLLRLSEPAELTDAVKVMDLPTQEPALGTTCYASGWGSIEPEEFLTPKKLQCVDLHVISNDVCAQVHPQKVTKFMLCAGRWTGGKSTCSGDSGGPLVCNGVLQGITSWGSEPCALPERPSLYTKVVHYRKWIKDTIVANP
Protocol: The conjugates prepared as described in Example 3 were individually dissolved in PSA digestion buffer (50 mM tris(hydroxymethyl)-aminomethane pH7.4, 140 mM NaCl) and the solution added to PSA at a molar ration of 100 to 1. Alternatively, the PSA digestion buffer utilized is 50 mM tris(hydroxymethyl)-aminomethane pH7.4, 140 mM NaCl. The reaction was quenched after various reaction times by the addition of trifluoroacetic acid (TFA) to a final 1% (volume/volume). Alternatively the reaction is quenched with 10 mM ZnCl2. The quenched reaction was analyzed by HPLC on a reversed-phase C18 column using an aqueous 0.1 % TFA/acetonitrile gradient. The amount of time (in minutes) required for 50% cleavage of the noted. oligopeptide-cytotoxic agent conjugates with enzymatically active free PSA were then calculated.

[2] = molecular target: T1, enzymatically active free PSA (York PSA); test: as above; assay type: biochemical
Colo320DM cells = test: In vitro cytotoxicity, Alamar Blue assay, Colo320DM control cells (do not express free PSA); assay type: cell-based; conditions: 72 HRS, read-out: Colo320DM cell kill EC 50 (in parentheses)
Protocol: (§1) Specifically, cell cultures of LNCap prostate tumor cells, Colo320DM cells (designated C320) or T47D cells in 96 well plates was diluted with medium containing various concentrations of a given conjugate (final plate well volume of 200 μl). […] The cells were incubated for 3 days at 37° C., 20 μl of Alamar Blue is added to the assay well. The cells were further incubated and the assay plates were read on a EL-310 ELISA reader at the dual wavelengths of 570 and 600 nm. at 4 and 7 hours after addition of Alamar Blue. Relative percentage viability at the various concentration of conjugate tested was then calculated versus control (no conjugate) cultures and an EC50 was determined. Unless otherwise indicated, the acetate salt of the conjugate was tested.

[3] = tested on: LNCap prostate tumor cells; test: In vitro cytotoxicity, Alamar Blue assay, LNCaP cells; assay type: cell-based; conditions: read-out: LNCaP Cell Kill in 72 HRS EC 50
Protocol: as §1

| Molecule | Time to 50% Substrate Cleavage by York PSA [1] | Substrate cleavage by York PSA at 1 HOUR [1] | also measured |
| --- | --- | --- | --- |
| 4-O-(Ac-3-Pal-SSChgQ(dS)-P)-dAc-VIN (XSSXQXP; D-residues; non-natural residues) | – | – | Substrate cleavage by York PSA at 3 HOURS ([1]; 3 HOURS): 3 HOURS = 0% |
| 4-O-(Ac-SSChgQ-SS-P)-dAc-VIN (XSXQSSP; non-natural residues) | 15 min | – | – |
| 4-O-[(2-OH)Ac-SChgQSS-Sar]-dAc-VIN (XXQSSX; N-methyl; non-natural residues) | – | 1 HOUR = 4% | – |
| 4-O-[Ac-4-trans-L-HypSSChgQ-(dS)SP]-dAc-VIN | – | – | Time to 50% Substrate Cleavage by York PSA, 10 X ENZ [2]: 6 HOURS (10 X |
| 4-O-[Ac-SChgQS-Aib-P]-dAc-VIN | – | 1 HOUR = 8% | – |
| 4-O-[Ac-SChgQSS-Aib-P]-dAc-VIN | 15 min and 23 min | – | – |
| 4-O-[Ac-SChgQSS-Pip]-dAc-VIN | 15 min | – | – |
| 4-O-[Ac-SSChgQ-S(dS)-4-trans-L-Hyp]-dAc-VIN | – | 1 HOUR = 14% | – |
| CC[C@]1(O)C[C@H]2CN(CCc3c([nH]c4ccccc34)[C@@](C(=O)OC)(c3cc4c(cc3OC)N(C)[C@H]3[C@@](O)(C(=O)OC)[C@H](OC(=O)CNC)[C@]5(CC)C=CCN6CC[C@]43[C@@H]65)C2)C1 [4-O-sarcosyl-(dAc)-VIN] | – | – | EC50 (Colo320DM cells): 1800 nM; EC50 ([3]; 72 HRS): 1300 nM |
| CCC1(O)CC2CN(CCc3c([nH]c4ccccc34)C(C(=O)OC)(c3cc4c(cc3OC)N(C)C3C(O)(C(=O)OC)C(OC(=O)C5CC(O)CN5)C5(CC)C=CCN6CCC43C65)C2)C1 [(4-O-4-trans-L-Hyp)-dAc-VIN] | – | – | EC50 (Colo320DM cells): 1100 nM; EC50 ([3]; 72 HRS): 600 nM |
| CC[C@]1(O)C[C@@H]2CN(CCc3c([nH]c4ccccc34)[C@@](C(=O)OC)(c3cc4c(cc3OC)N(C)[C@H]3[C@@](O)(C(=O)OC)[C@H](OC(C)=O)[C@]5(CC)C=CCN6CC[C@]43[C@@H]65)C2)C1 [VINBLASTINE, reference compound] | – | – | EC50 (Colo320DM cells; Homo sapiens, COLO 320DM): 500 nM; EC50 ([3]; Homo sapiens, LNCaP, 72 h): 500 nM |
| (4-O)-Ac-(4-trans-L-Hyp)SSChgQ-SL-(dAc)-VIN (XSSXQSL; non-natural residues) | 35 min | – | – |
| Ac-AbuSSChgQ-(dS)-(4-O-P)-dAc-VIN | – | 1 HOUR = 0% | – |
